Results as given in article PMC11088704, “Structural basis for the regulation of plant transcription factor WRKY33 by the VQ protein SIB1” (Communications Biology, 2024).

Legend:
[1] = target: WRKY33_C;SIB1 (SIB1 11-100) (Arabidopsis thaliana;Arabidopsis …, UniProt Q8S8P5;Q9LDH1 345-422;11-100, |); test: EMSA; SIB1:WRKY33_C 2:1; ternary complex; Kd not fittable; EMSA: NMR buffer (composition not given in material) with 100 mM NaCl, 1.0 ng dsDNA in 20 ul, room temperature 20 min, SIB1:WRKY33_C 2:1; gel in 0.5x TBE, GelRed stain; conditions: protein: recombinant;recombinant; tags: C-terminal 6xHis;C-terminal 6xHis; copies: 1;1; blunt
Chain of WRKY33_C;SIB1 (SIB1 11-100) (Q8S8P5 345-422, chain 1 of 2): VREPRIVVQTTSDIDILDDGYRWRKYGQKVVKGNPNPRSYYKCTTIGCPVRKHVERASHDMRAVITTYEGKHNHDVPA
Chain of WRKY33_C;SIB1 (SIB1 11-100) (Q9LDH1 11-100, chain 2 of 2): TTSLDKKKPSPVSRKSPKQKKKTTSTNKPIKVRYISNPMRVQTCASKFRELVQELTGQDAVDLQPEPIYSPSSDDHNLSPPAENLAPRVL

[2] = target: WRKY33_C;SIB1mini (Arabidopsis thaliana;Arabidopsis …, UniProt Q8S8P5;Q9LDH1 345-422;46-69, |); test: EMSA; SIB1mini present; Kd not fittable; EMSA: NMR buffer (composition not given in material) with 100 mM NaCl, 1.0 ng dsDNA in 20 ul, room temperature 20 min, SIB1:WRKY33_C 2:1; gel in 0.5x TBE, GelRed stain; conditions: tags: C-terminal 6xHis;; copies: 1;1; blunt
Chain of WRKY33_C;SIB1mini (Q8S8P5 345-422, chain 1 of 2): as the sequence (Q8S8P5 345-422, chain 1 of 2) above
Chain of WRKY33_C;SIB1mini (Q9LDH1 46-69, chain 2 of 2): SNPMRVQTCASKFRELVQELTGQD

B1: W-box DNA (dsDNA)
DNA 1: AAAGTTGACCAA
DNA 2: TTGGTCAACTTT
binding signal [1]: ~95 % DNA bound at 1:1 molar ratio (WRKY33_C alone ~80%) | binding signal [2]: ~95 % DNA bound at 1:1 molar ratio (WRKY33 alone ~80%)
